Results from patent US20140112915A1 (Novartis, published 2014).
Where two headings read alike, the source gives them in different places.

T1: Recombinant human IL-18 (human, UniProt Q14116 37-193)
T1 sequence: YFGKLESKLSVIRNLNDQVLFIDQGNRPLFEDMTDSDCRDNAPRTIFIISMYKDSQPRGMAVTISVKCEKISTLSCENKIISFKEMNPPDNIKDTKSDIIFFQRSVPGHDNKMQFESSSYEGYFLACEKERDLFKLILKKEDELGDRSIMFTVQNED

T2: Native human IL-18 (human, UniProt Q14116 37-193)
T2 sequence: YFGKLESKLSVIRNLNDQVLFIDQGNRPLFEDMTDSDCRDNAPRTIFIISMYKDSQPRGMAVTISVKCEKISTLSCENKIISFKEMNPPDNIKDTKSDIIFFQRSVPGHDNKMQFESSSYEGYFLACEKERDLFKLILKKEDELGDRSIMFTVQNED

T3: IL-18/IL-18BP complex (human, UniProt O95998 31-194, biotinylated in the first ELISA setup, unbiotinylated in the second)
T3 construct: also called biotinylated IL-18/IL18-BP complex; not shown: human IgG1 Fc tag
T3 sequence 1: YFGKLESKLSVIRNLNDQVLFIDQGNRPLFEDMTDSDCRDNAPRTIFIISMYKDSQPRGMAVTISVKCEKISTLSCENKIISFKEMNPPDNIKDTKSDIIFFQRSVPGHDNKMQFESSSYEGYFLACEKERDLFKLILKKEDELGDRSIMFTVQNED
T3 sequence 2: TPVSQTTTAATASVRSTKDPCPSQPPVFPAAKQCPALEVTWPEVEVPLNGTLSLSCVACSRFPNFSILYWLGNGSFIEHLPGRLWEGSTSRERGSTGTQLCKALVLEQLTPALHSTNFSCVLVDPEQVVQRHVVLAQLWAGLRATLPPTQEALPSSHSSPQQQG

T4: Recombinant cynomolgus IL-18 (cynomolgus monkey, UniProt Q14116 37-193 (human entry))
T4 chain: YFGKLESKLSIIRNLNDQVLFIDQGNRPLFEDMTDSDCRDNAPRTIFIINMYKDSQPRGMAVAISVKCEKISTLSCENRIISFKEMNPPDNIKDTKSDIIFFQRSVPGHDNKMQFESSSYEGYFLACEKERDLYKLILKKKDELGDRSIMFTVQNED


Assays:
Recombinant human IL-18 [1] = target: T1, Recombinant human IL-18; test: cell-based or functional assay
Native human IL-18 [2] = target: T2, Native human IL-18; test: cell-based or functional assay
Recombinant human IL-18 [3] = target: T1, Recombinant human IL-18; test: solution equilibrium titration (SET), ECL detection
IL-18/IL-18BP complex = target: T3, IL-18/IL-18BP complex; test: ELISA, first set-up: antibody titrated and incubated with the biotinylated human IL-18/rhIL-18BP-Fc complex, captured on NeutrAvidin plate, AP-labelled anti-human F(ab)2, AttoPhos fluorescence [A]
[4] = target: T4, Recombinant cynomolgus IL-18; test: cell-based or functional assay
Recombinant human IL-18 [5] = target: T1, Recombinant human IL-18; test: cell-based or functional assay; remark: listed apart in the source
Native human IL-18 [6] = target: T2, Native human IL-18; test: cell-based or functional assay; remark: listed apart in the source
Recombinant human IL-18 [7] = target: T1, Recombinant human IL-18; test: cell-based or functional assay; remark: listed apart in the source
Native human IL-18 [8] = target: T2, Native human IL-18; test: cell-based or functional assay; remark: listed apart in the source
[9] = target: T4, Recombinant cynomolgus IL-18; test: ratio of SET KD values, cynomolgus against human IL-18
Recombinant human IL-18 [10] = target: T1, Recombinant human IL-18; test: solution equilibrium titration (SET), ECL detection; human IL-18; unbracketed value, column Hu IL-18
[11] = target: T4, Recombinant cynomolgus IL-18; test: solution equilibrium titration (SET), ECL detection; value in brackets = cynomolgus IL-18; bracketed value

Row | Binder | IC50, inhibition of IFN-γ release, KG-1 cells, Hu IL-18 (1 nM) (Recombinant human IL-18 [1]) [nM] | IC50, inhibition of IFN-γ release, PBMC, Hu IL-18 (recombinant) (Recombinant human IL-18 [1]) [nM] | IC50, inhibition of IFN-γ release, PBMC, Native IL-18 (LPS/IL-12) (Native human IL-18 [2]) [nM] | Kd (Recombinant human IL-18 [3]) [nM] | binding result (IL-18/IL-18BP complex) | IC50, inhibition of IFN-γ release, KG-1 cells, Cyno IL-18 [4] [nM] | IC50, inhibition of IFN-γ release, KG-1 cells, Hu IL-18 (1 nM) (Recombinant human IL-18 [5]) [nM] | IC50, inhibition of IFN-γ release, PBMC, Native IL-18 (LPS/IL-12) (Native human IL-18 [6]) [nM] | IC50, inhibition of IFN-γ release, human whole blood, recombinant human IL-18 (7 nM) (Recombinant human IL-18 [7]) [nM] | IC50, inhibition of IFN-γ release, human whole blood, LPS/IL-12 (native IL-18) (Native human IL-18 [8]) [nM] | fold weaker than against human IL-18 [9] [fold] | Kd (Recombinant human IL-18 [10]) [nM] | Kd [11] [nM]
1 | MOR08776 (antibody, human IgG1, lambda, V domains shown, also called MOR8776) VH: QVQLQESGPGLVKPGETLSLTCTVSGGSISTGSYYWNWIRQAPGKGLEWIGEINHMGITYYNPSLKGRVTISVDTSKNQFSLKLSSVTAEDTAVYYCARTTRYWMSHILAYGMDYWGQGTLVTVSS VL: DIVLTQPPSVSGAPGQRVTISCSGSSSNIGNHYVSWYQQLPGTAPKLLIYANTKRPSGVPDRFSGSKSGTSASLAITGLQSEDEADYYCSSYDGSQSIVFGGGTKLTVLG | 18 | 50.8 | 5.9 | 0.038 | no binding (tested: about 800 nM) | – | – | – | – | – | – | – | –
2 | MOR08775 (antibody, human IgG1, lambda, V domains shown, also called MOR8775) VH: QVQLVQSGAEVKKPGSSVKVSCKASGGTFNSYAISWVRQAPGQGLEWMGGIIPIYGTANYAQKFQGRVTITADESTSTAYMELSSLRSEDTAVYYCARAAYHPLVFDNWGQGTLVTVSS VL: DIVLTQPPSVSGAPGQRVTISCSGSSSNIGNHYVNWYQQLPGTAPKLLIYRNNHRPSGVPDRFSGSKSGTSASLAITGLQSEDEADYYCQSWDYSGFSTVFGGGTKLTVLG | 68 | 9.2 | 0.7 | 0.065 | no binding (tested: about 800 nM) | 22 | – | – | – | – | – | – | –
3 | MOR9464_N30K (antibody, human IgG1, lambda, L234A L235A, V domains shown, also called MOR09464_N30K) VH: EVQLVQSGAEVKKPGSSVKVSCKASGGTFKSYAISWVRQAPGQGLEWMGNIIPMTGQTYYAQKFQGRVTITADESTSTAYMELSSLRSEDTAVYYCARAAYHPLVFDNWGQGTLVTVSS VL: DIVLTQPPSVSGAPGQRVTISCSGSSSNIGNHYVNWYQQLPGTAPKLLIYRNNHRPSGVPDRFSGSKSGTSASLAITGLQSEDEADYYCQSWDYSGFSTVFGGGTKLTVLG | 0.36 | – | 0.2 | – | – | 4.7 | 0.36 | 0.2 | 8.62 | 17.1 | 10 | 0.002 | 0.02
